Biological target: Drosophila olf186-F-RB (Drosophila) (UniProt Q9U6B8)
Assay: cell-based or functional assay

Sequence of UniProt Q9U6B8 (Q9U6B8 whole entry): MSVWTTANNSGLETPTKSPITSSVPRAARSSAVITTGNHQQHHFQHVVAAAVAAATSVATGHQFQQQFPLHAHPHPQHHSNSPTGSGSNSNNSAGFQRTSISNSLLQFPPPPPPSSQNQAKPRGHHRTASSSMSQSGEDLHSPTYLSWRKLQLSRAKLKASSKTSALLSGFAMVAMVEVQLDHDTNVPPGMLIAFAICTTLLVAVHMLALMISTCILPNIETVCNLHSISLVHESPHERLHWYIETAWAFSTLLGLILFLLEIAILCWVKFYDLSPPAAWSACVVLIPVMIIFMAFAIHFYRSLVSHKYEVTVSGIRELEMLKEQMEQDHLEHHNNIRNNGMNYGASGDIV

CRAC current density (whole-cell patch clamp, cotransfected S2 cells): 8 fold
Substance: Drosophila Stim (from UniProt P83094 24-570)

Reference: patent US20140187616A1
